Assay results published in paper PMC12833424.
pKd: −log10 of the molar value.

Columns and labels:
[1] = tested on: IgG1-DS5 (human IgG1/kappa framework, scFv phage library derived); experiment: ELISA; conditions: 2'-O-methyl, ELISA: streptavidin or anti-FAM plates, PBS/0.05% Tween 20 washes, BSA or Blotto block, EMSA: PBS, 1 h, room temperature, 20 uM oligo, 25 ng/uL IgG, 5% …
[2] = tested on: IgG1-DS5 (human IgG1/kappa framework, scFv phage library derived); experiment: SPR steady state; conditions: ELISA: streptavidin or anti-FAM plates, PBS/0.05% Tween 20 washes, BSA or Blotto block, EMSA: PBS, 1 h, room temperature, 20 uM oligo, 25 ng/uL IgG

Row | Sequence | binding signal (% of T2 ELISA slope) [1] | binding signal (% of full complex ELISA slope) [1] | further results
1 | UUUCUGAAGAAAUUUCCUGUGUC / UUUCUUCAG [T10 TempFlp:9-co] | 0 |  | 
2 | UUUUUCCUGUGUCACAAUAGAG / CUCUAUUGU [T9 TempTr8:complementary 9-mer] | 0 |  | 
3 | UUUUUCCUGUGUCCUGAAGAAA / UUUCUUCAG [T3 TempTr2:9-co] |  | 100 | 
4 | UUUUUCCUGUGUCCUGAAGAAAGCA / UUUCUUCAG [T2 TempTr1:9-co] |  | 100 | 
5 | UUUUUCCUGUGUCCUGAAGAAAGCA / UUUCUUCAG [T2 duplex without biotin] |  |  | pKd ([2]; 2'-O-methyl, 5% …): 6.36
6 | UUUUUCCUGUGUCCUGAAGAAAGCA / UUUCUUCAGGACACAG [T1 TempTr1:oligo-1] |  | 100 | 
7 | UUUUUCCUGUGUCCUGAAGAAAGCAAAGACAUCUGGACAU / AUGUCUUUGCUUUCUUCAGG [D6 template:contig. complement-1] |  | 0.8 | 
8 | UUUUUCCUGUGUCCUGAAGAAAGCAAAGACAUCUGGACAU / GUCCAGAUGUCUUUGC [D2 template:azide-haplomer-2] |  |  | binding signal (% of full complex ELISA slope) ([1]; 3' azide on strand 2): 0
9 | UUUUUCCUGUGUCCUGAAGAAAGCAAAGACAUCUGGACAU / GUCCAGAUGUCUUUGC [D4 template:oligo-2] |  | 0 | 
10 | UUUUUCCUGUGUCCUGAAGAAAGCAAAGACAUCUGGACAU / UUUCUUCAGGACACAG / GUCCAGAUGUCUUUGC [D5 template:oligo-1:oligo-2] |  | 45 | 
11 | UUUUUCCUGUGUCCUGAAGAAAGCAAAGACAUCUGGACAU / UUUCUUCAGGACACAG / GUCCAGAUGUCUUUGC [Temp1:BCN-haplomer-1:azide-haplomer-2 complex] |  |  | pKd ([2]; all 2'-O-methyl, 5' BCN on strand 2, 3' azide on strand 3, reacting to triazole): 6.48
12 | UUUUUCCUGUGUCCUGAAGAAAGCAAAGACAUCUGGACAU / UUUCUUCAGGACACAG [D3 template:oligo-1] |  | 76.1 | 
13 | UUUUUCGUGUGUGCUGAAGAAA / UUUCUUCAG [T8 TempTr7:9-co] | 0 |  | 
14 | UUUUUCUCUCUGGCUGAAGAAA / UUUCUUCAG [T5 TempTr4:9-co] | 0 |  | 
15 | UUUUUCUGAAGAA / UUUCUUCAG [T4 TempTr3:9-co] | 0 |  | 
